The record followed here is article PMC7292962 (Biochemistry, 2019).

Where two headings read alike, the source gives them in different places.

Holding throughout (experiment): AUC
Data set [1] concerns the molecule itself.
Data set [2] concerns the molecule itself. The source holds these as a separate data set.
Data set [3] deals with the molecule itself. The source holds these as a separate data set.
Data set [4] concerns the molecule itself. The source holds these as a separate data set.

B1: S100A12 (natural protein, human)
chain: TKLEEHLEGIVNIFHQYSVRKGHFDTLSKGELKQLLTKELANTIKNIKDKAVIDEIFQGLDANQDEQVDFQEFISLVAIALKAAHYHTHKE
Turning to B1, the values for the Kd in “AUC [1]”, in the data set “AUC [3]” and in “AUC [4]” were 56.7 µM, 13.2 µM and 4590 µM, respectively. In addition, in the data set “AUC [2]”, the “stoichiometry N” value amounted to 2.

The term Kd denotes the equilibrium constant for the complex coming apart. A word on the stoichiometry N: it is the number of molecules, sites or subunits per partner or assembly.
